Reference: patent publication US20190119358A1
*1 amine or outer side, *2 acyl side, *3 side chain or, on linkers, in order; H or OH if unused. Bridges are numbered along the chain shown (N, C = ends). Primed or numbered codes have the meaning given here. Where no end group is shown, it is not given here. [ ]: non-standard residue; d: D form. The star is where a group is joined. ξ: configuration not given here. DAPTZAC3 = (S)-3-(4-(3-acrylamidopropyl)-1H-1,2,3-triazol-1-yl)-2-aminopropanoic acid, C=CC(=O)NCCCc1cn(C[C@H](N[*:1])C(=O)[*:2])nn1; DAPTZAC2 = (S)-3-(4-(2-acrylamidoethyl)-1H-1,2,3-triazol-1-yl)-2-aminopropanoic acid, C=CC(=O)NCCc1cn(C[C@H](N[*:1])C(=O)[*:2])nn1; DAPTZAC1 = (S)-3-(4-(acrylamidomethyl)-1H-1,2,3-triazol-1-yl)-2-aminopropanoic acid, C=CC(=O)NCc1cn(C[C@H](N[*:1])C(=O)[*:2])nn1; ADTZPA″ = (S)-2-amino-3-(1-dodecyl-1H-1,2,3-triazol-4-yl)propanoic acid, CCCCCCCCCCCCn1cc(C[C@H](N[*:1])C(=O)[*:2])nn1; MORAC = (S)-5-acrylamido-2-(methylamino)pentanoic acid, C=CC(=O)NCCC[C@@H](C(=O)[*:2])N(C)[*:1]; DABAC1 = (S)-4-acrylamido-2-aminobutanoic acid, C=CC(=O)NCC[C@H](N[*:1])C(=O)[*:2]; m‑xylylene = m-xylylene thioether bridge between Cys; Trp(7-aza) = N[C@@H](Cc1c[nH]c2ncccc12)C(=O)O; NMePhe(4-F) = CN[C@@H](Cc1ccc(F)cc1)C(=O)O; ivDde = CC(C)CC(=C1C(=O)CC(C)(C)CC1=O)*; mXylylene = c1cc(C[*:1])cc(C[*:2])c1; Glutaryl = O=C(CCCC(=O)[*:2])[*:1]; dPhg = N[C@@H](C(=O)O)c1ccccc1; Chg = N[C@H](C(=O)O)C1CCCCC1; PEG4 = NCCOCCOCCOCCOCCC(=O)O; Phg = N[C@H](C(=O)O)c1ccccc1; Tle = CC(C)(C)[C@H](N)C(=O)O; ξPhg = NC(C(=O)O)c1ccccc1; NMeA = CN[C@@H](C)C(=O)O; Pra = C#CC[C@H](N)C(=O)O; Dab = NCC[C@H](N)C(=O)O; Nva = CCC[C@H](N)C(=O)O; Dap = NC[C@H](N)C(=O)O; PEG1 = NCCOCCC(=O)O; Ahx = NCCCCCC(=O)O; Sar = CNCC(=O)O

What follows are binders tested against GMPPNP-loaded H-Ras or GTP-loaded K-Ras (assay: FP competition, displacement of probe R4007 from Ras).

| Binder | IC50 [nM] |
| --- | --- |
| Glutaryl-[Nva]CY[Tle]K(ivDde)H[NMeA][Phg][Trp(7-aza)]Y[NMePhe(4-F)][Sar]C-NH2 (linker 2-13 via m‑xylylene) [R4138] | 461 |
| Ac-[Nva]CY[Tle]KH[NMeA]A[Trp(7-aza)]Y[NMeA][Sar]CGGGCVIM (linker 2-13 via mXylylene) [R4143] | 1640 |
| Ac-[Nva]CY[Tle]A[Dap][NMeA][Phg][Trp(7-aza)]Y[NMePhe(4-F)][Sar]C-NH2 (linker 2-13 via mXylylene; SMILES CCC[C@H](NC(C)=O)C(=O)N[C@H]1CSCc2cccc(c2)CSC[C@@H](C(N)=O)NC(=O)CN(C)C(=O)[C@H](Cc2ccc(F)cc2)N(C)C(=O)[C@H](Cc2ccc(O)cc2)NC(=O)[C@H](Cc2c[nH]c3ncccc23)NC(=O)[C@H](c2ccccc2)NC(=O)[C@H](C)N(C)C(=O)[C@H](CN)NC(=O)[C@H](C)NC(=O)[C@H](C(C)(C)C)NC(=O)[C@H](Cc2ccc(O)cc2)NC1=O) [R4141] | 695 |
| Ac-[Nva]SY[Tle]A[DAPTZAC1][NMeA][ξPhg][Trp(7-aza)]Y[NMePhe(4-F)][Sar]S-NH2 [R4005] | 2070 |
| Ac-[Nva]CY[Tle]A[Dab][NMeA][Phg][Trp(7-aza)]Y[NMePhe(4-F)][Sar]C-NH2 (linker 2-13 via mXylylene; SMILES CCC[C@H](NC(C)=O)C(=O)N[C@H]1CSCc2cccc(c2)CSC[C@@H](C(N)=O)NC(=O)CN(C)C(=O)[C@H](Cc2ccc(F)cc2)N(C)C(=O)[C@H](Cc2ccc(O)cc2)NC(=O)[C@H](Cc2c[nH]c3ncccc23)NC(=O)[C@H](c2ccccc2)NC(=O)[C@H](C)N(C)C(=O)[C@H](CCN)NC(=O)[C@H](C)NC(=O)[C@H](C(C)(C)C)NC(=O)[C@H](Cc2ccc(O)cc2)NC1=O) [R4140] | 608 |
| Ac-[Nva]CY[Tle]AH[MORAC][Phg][Trp(7-aza)]Y[NMePhe(4-F)][Sar]C-NH2 (linker 2-13 via mXylylene; SMILES C=CC(=O)NCCC[C@H]1C(=O)N[C@@H](c2ccccc2)C(=O)N[C@@H](Cc2c[nH]c3ncccc23)C(=O)N[C@@H](Cc2ccc(O)cc2)C(=O)N(C)[C@@H](Cc2ccc(F)cc2)C(=O)N(C)CC(=O)N[C@H](C(N)=O)CSCc2cccc(c2)CSC[C@H](NC(=O)[C@H](CCC)NC(C)=O)C(=O)N[C@@H](Cc2ccc(O)cc2)C(=O)N[C@@H](C(C)(C)C)C(=O)N[C@@H](C)C(=O)N[C@@H](Cc2c[nH]cn2)C(=O)N1C) [R4142] | 1240 |
| Ac-[Nva]CY[Tle]K[dP][NMeA][Phg][Trp(7-aza)]Y[NMePhe(4-F)][Sar]C-NH2 (linker 2-13 via mXylylene; SMILES CCC[C@H](NC(C)=O)C(=O)N[C@H]1CSCc2cccc(c2)CSC[C@@H](C(N)=O)NC(=O)CN(C)C(=O)[C@H](Cc2ccc(F)cc2)N(C)C(=O)[C@H](Cc2ccc(O)cc2)NC(=O)[C@H](Cc2c[nH]c3ncccc23)NC(=O)[C@H](c2ccccc2)NC(=O)[C@H](C)N(C)C(=O)[C@H]2CCCN2C(=O)[C@H](CCCCN)NC(=O)[C@H](C(C)(C)C)NC(=O)[C@H](Cc2ccc(O)cc2)NC1=O) [R4144] | 1960 |
| cyclo([Ahx]Y[Tle]KH[NMeA][Phg][Trp(7-aza)]Y[NMePhe(4-F)][Sar][Pra]) (SMILES C#CC[C@@H]1NC(=O)CN(C)C(=O)[C@H](Cc2ccc(F)cc2)N(C)C(=O)[C@H](Cc2ccc(O)cc2)NC(=O)[C@H](Cc2c[nH]c3ncccc23)NC(=O)[C@H](c2ccccc2)NC(=O)[C@H](C)N(C)C(=O)[C@H](Cc2c[nH]cn2)NC(=O)[C@H](CCCCN)NC(=O)[C@H](C(C)(C)C)NC(=O)[C@H](Cc2ccc(O)cc2)NC(=O)CCCCCNC1=O) [R4137] | 411 |
| cyclo([PEG1]Y[Tle]KH[NMeA][Phg][Trp(7-aza)]Y[NMePhe(4-F)][Sar][Pra]) (SMILES C#CC[C@@H]1NC(=O)CN(C)C(=O)[C@H](Cc2ccc(F)cc2)N(C)C(=O)[C@H](Cc2ccc(O)cc2)NC(=O)[C@H](Cc2c[nH]c3ncccc23)NC(=O)[C@H](c2ccccc2)NC(=O)[C@H](C)N(C)C(=O)[C@H](Cc2c[nH]cn2)NC(=O)[C@H](CCCCN)NC(=O)[C@H](C(C)(C)C)NC(=O)[C@H](Cc2ccc(O)cc2)NC(=O)CCOCCNC1=O) [R4139] | 522 |

Second part, the binder after the results:

| IC50 [nM] | Binder |
| --- | --- |
| 12200 | Ac-[Nva]SY[Tle]A[DAPTZAC2][NMeA][ξPhg][Trp(7-aza)]Y[NMePhe(4-F)][Sar]S-NH2 (also: places Phg, 7-azaTrp, NMe-4-F-Phe, Sar at 9, 10, 12, 13) [R4151] |
| 6260 | Ac-[Nva]CY[Tle]KH[NMeA][Chg][Trp(7-aza)]Y[NMePhe(4-F)][Sar]C-NH2 (linker 2-13 via mXylylene; SMILES CCC[C@H](NC(C)=O)C(=O)N[C@H]1CSCc2cccc(c2)CSC[C@@H](C(N)=O)NC(=O)CN(C)C(=O)[C@H](Cc2ccc(F)cc2)N(C)C(=O)[C@H](Cc2ccc(O)cc2)NC(=O)[C@H](Cc2c[nH]c3ncccc23)NC(=O)[C@H](C2CCCCC2)NC(=O)[C@H](C)N(C)C(=O)[C@H](Cc2c[nH]cn2)NC(=O)[C@H](CCCCN)NC(=O)[C@H](C(C)(C)C)NC(=O)[C@H](Cc2ccc(O)cc2)NC1=O) [R4149] |
| 5190 | Ac-[Nva]CY[Tle]KH[NMeA][Phg][Trp(7-aza)]Y[NMePhe(4-F)][Sar]C[PEG4][ADTZPA″]-NH2 (linker 2-13 via mXylylene) [R4147] |
| 7640 | Ac-[Nva]CY[Tle]K(4‑(dimethylamino)benzoyl‑2,3,5,6‑d4)H[NMeA][Phg][Trp(7-aza)]Y[NMePhe(4-F)][Sar]C-NH2 (linker 2-13 via mXylylene) [R4150] |
| 36400 | Ac-[Nva]CY[Tle]KA[NMeA][dPhg][Trp(7-aza)]Y[NMePhe(4-F)][Sar]C-NH2 (linker 2-13 via mXylylene; SMILES CCC[C@H](NC(C)=O)C(=O)N[C@H]1CSCc2cccc(c2)CSC[C@@H](C(N)=O)NC(=O)CN(C)C(=O)[C@H](Cc2ccc(F)cc2)N(C)C(=O)[C@H](Cc2ccc(O)cc2)NC(=O)[C@H](Cc2c[nH]c3ncccc23)NC(=O)[C@@H](c2ccccc2)NC(=O)[C@H](C)N(C)C(=O)[C@H](C)NC(=O)[C@H](CCCCN)NC(=O)[C@H](C(C)(C)C)NC(=O)[C@H](Cc2ccc(O)cc2)NC1=O) [R4153] |
| 6000 | Ac-[Nva]SY[Tle]A[DAPTZAC3][NMeA][ξPhg][Trp(7-aza)]Y[NMePhe(4-F)][Sar]S-NH2 (also: places Phg, 7-azaTrp, NMe-4-F-Phe, Sar at 9, 10, 12, 13) [R4148] |
| 3390 | Ac-[Nva]CY[Tle]A[DABAC1][NMeA][Phg][Trp(7-aza)]Y[NMePhe(4-F)][Sar]C-NH2 (linker 2-13 via mXylylene; SMILES C=CC(=O)NCC[C@@H]1NC(=O)[C@H](C)NC(=O)[C@H](C(C)(C)C)NC(=O)[C@H](Cc2ccc(O)cc2)NC(=O)[C@@H](NC(=O)[C@H](CCC)NC(C)=O)CSCc2cccc(c2)CSC[C@@H](C(N)=O)NC(=O)CN(C)C(=O)[C@H](Cc2ccc(F)cc2)N(C)C(=O)[C@H](Cc2ccc(O)cc2)NC(=O)[C@H](Cc2c[nH]c3ncccc23)NC(=O)[C@H](c2ccccc2)NC(=O)[C@H](C)N(C)C1=O) [R4146] |
| 2800 | cyclo(Y[Tle]KH[NMeA][Phg][Trp(7-aza)]Y[NMePhe(4-F)][Sar][Pra]) (SMILES C#CC[C@@H]1NC(=O)CN(C)C(=O)[C@H](Cc2ccc(F)cc2)N(C)C(=O)[C@H](Cc2ccc(O)cc2)NC(=O)[C@H](Cc2c[nH]c3ncccc23)NC(=O)[C@H](c2ccccc2)NC(=O)[C@H](C)N(C)C(=O)[C@H](Cc2c[nH]cn2)NC(=O)[C@H](CCCCN)NC(=O)[C@H](C(C)(C)C)NC(=O)[C@H](Cc2ccc(O)cc2)NC1=O) [R4145] |
| 28300 | Ac-[Nva]CA[Tle]KH[NMeA][Phg][Trp(7-aza)]Y[NMePhe(4-F)][Sar]C-NH2 (linker 2-13 via mXylylene; SMILES CCC[C@H](NC(C)=O)C(=O)N[C@H]1CSCc2cccc(c2)CSC[C@@H](C(N)=O)NC(=O)CN(C)C(=O)[C@H](Cc2ccc(F)cc2)N(C)C(=O)[C@H](Cc2ccc(O)cc2)NC(=O)[C@H](Cc2c[nH]c3ncccc23)NC(=O)[C@H](c2ccccc2)NC(=O)[C@H](C)N(C)C(=O)[C@H](Cc2c[nH]cn2)NC(=O)[C@H](CCCCN)NC(=O)[C@H](C(C)(C)C)NC(=O)[C@H](C)NC1=O) [R4152] |
| 37400 | {Alexa Fluor 594}-[Nva]CY[Nva][Phg][NMePhe(4-F)]TP[Trp(7-aza)]C[Trp(7-aza)]EE-NH2 (linker 2-10 via m‑xylylene) [R4154] |
